# Results reported in paper PMC10786891, “Massively parallel profiling of RNA-targeting CRISPR-Cas13d”.
# Positions count from the first letter of the chain named. Numbers in names are those of the source.
# T1: EsCas13d, nuclease-dead (Eubacterium siraeum, UniProt B0MS50, R295A;H300A;R849A;H854A)
# T1 sequence: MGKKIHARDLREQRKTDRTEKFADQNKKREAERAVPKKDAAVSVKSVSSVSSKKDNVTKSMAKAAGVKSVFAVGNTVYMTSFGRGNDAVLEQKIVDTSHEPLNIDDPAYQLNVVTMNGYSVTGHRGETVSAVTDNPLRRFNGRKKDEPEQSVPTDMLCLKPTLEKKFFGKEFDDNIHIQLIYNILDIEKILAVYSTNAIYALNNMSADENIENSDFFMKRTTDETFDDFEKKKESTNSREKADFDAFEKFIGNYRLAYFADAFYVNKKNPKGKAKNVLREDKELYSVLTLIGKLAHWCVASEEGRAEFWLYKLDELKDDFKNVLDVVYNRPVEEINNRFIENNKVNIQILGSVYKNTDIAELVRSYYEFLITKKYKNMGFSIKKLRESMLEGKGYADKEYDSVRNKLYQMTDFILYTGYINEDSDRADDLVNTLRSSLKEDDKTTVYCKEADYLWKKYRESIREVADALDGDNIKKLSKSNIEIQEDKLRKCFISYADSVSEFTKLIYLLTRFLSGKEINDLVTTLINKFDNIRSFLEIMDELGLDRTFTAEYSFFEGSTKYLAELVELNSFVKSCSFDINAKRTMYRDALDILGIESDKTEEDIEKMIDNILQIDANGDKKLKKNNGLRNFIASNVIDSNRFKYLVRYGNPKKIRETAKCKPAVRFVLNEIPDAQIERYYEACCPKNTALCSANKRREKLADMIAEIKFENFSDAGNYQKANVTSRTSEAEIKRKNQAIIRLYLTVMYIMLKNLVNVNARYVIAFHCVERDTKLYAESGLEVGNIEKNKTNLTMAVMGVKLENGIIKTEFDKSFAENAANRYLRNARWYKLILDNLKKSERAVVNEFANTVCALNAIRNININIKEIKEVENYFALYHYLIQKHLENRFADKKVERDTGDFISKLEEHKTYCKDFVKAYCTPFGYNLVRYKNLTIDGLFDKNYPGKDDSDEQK
# B1: target 1 C6G,U8G (mixed)
# RNA 1: CACCCGUGCAAAAAUGCAGGGGUCUAAAACUGAGCGGAUAACCUCUCUAUGG
# RNA 2: GGGAAUGGAUCCACAUCUACGAAUUCGUACCAUAGAGAGGUUAGCGGCUCACCGAGAUCGGAAGAGCACACGU
# B2: target 1 insG 3' of 11,insC 3' of 8 (mixed)
# RNA 1: B1 RNA 1
# RNA 2: GGGAAUGGAUCCACAUCUACGAAUUCGUACCAUAGAGAGGUGUAUCCCGCUCACCGAGAUCGGAAGAGCACACGU
# B3: target 1 C2G,A14G (mixed)
# RNA 1: B1 RNA 1
# RNA 2: B1 RNA 2 with A38G, G44U, G46C, C50G
# B4: target 1 C6A,A16G (mixed)
# RNA 1: B1 RNA 1
# RNA 2: B1 RNA 2 with A36G, G44U, G46A
# B5: target 1 insU 3' of 18,insC 3' of 18 (mixed)
# RNA 1: B1 RNA 1
# RNA 2: B2 RNA 2 with G35U, A36C, G40A, U41G, A44U, U45A, C46U
# B6: target 1 insU 3' of 2,insG 3' of 2 (mixed)
# RNA 1: B1 RNA 1
# RNA 2: B2 RNA 2 with G42U, U43A, A44U, U45C, C47G, G49U, C52G
# B7: target 1 insC 3' of 19,insC 3' of 18 (mixed)
# RNA 1: B1 RNA 1
# RNA 2: B2 RNA 2 with A34C, G35A, A36C, G40A, U41G, A44U, U45A, C46U
# B8: target 1 insC 3' of 22,insA 3' of 17 (mixed)
# RNA 1: B1 RNA 1
# RNA 2: GGGAAUGGAUCCACAUCUACGAAUUCGUACCCAUAGAAGAGGUUAUCCGCUCACCGAGAUCGGAAGAGCACACGU
# B9: target 1 insA 3' of 8,insG 3' of 4 (mixed)
# RNA 1: B1 RNA 1
# RNA 2: B2 RNA 2 with G42U, U43A, A44U, U45A, C48G, G49C, C50G
# B10: target 1 del7,del22 (mixed)
# RNA 1: B1 RNA 1
# RNA 2: GGGAAUGGAUCCACAUCUACGAAUUCGUACAUAGAGAGGUUAUCGCUCACCGAGAUCGGAAGAGCACACGU
# B11: target 1 insG 3' of 16,insC 3' of 9 (mixed)
# RNA 1: B1 RNA 1
# RNA 2: B2 RNA 2 with A38G, G39A, U41G, G42U, U45C, C46U
# B12: target 1 insA 3' of 12,insA 3' of 7 (mixed)
# RNA 1: B1 RNA 1
# RNA 2: B2 RNA 2 with U41A, G42U, C47A
# B13: target 1 C2G,C22A (mixed)
# RNA 1: B1 RNA 1
# RNA 2: B1 RNA 2 with C30A, G44U, G46C, C50G
# B14: target 1 insU 3' of 22,insU 3' of 9 (mixed)
# RNA 1: B1 RNA 1
# RNA 2: B8 RNA 2 with C31U, A38G, G39A, A40G, G42U, U44A, A45U
# B15: target 1 U3C,C7A (mixed)
# RNA 1: B1 RNA 1
# RNA 2: B1 RNA 2 with G44U, C45A, G46C, U49C
# B16: target 1 A9U,G13A (mixed)
# RNA 1: B1 RNA 1
# RNA 2: B1 RNA 2 with G39A, A43U, G44U, G46C
# B17: target 1 C7U,A14C (mixed)
# RNA 1: B1 RNA 1
# RNA 2: B1 RNA 2 with A38C, G44U, C45U, G46C
# B18: target 1 A16C,G17U (mixed)
# RNA 1: B1 RNA 1
# RNA 2: B1 RNA 2 with G35U, A36C, G44U, G46C
# B19: target 1 insC 3' of 19,insG 3' of 14 (mixed)
# RNA 1: B1 RNA 1
# RNA 2: B8 RNA 2 with C32A, A33U, U34C, A38G, G39A, A40G
# B20: target 1 insU 3' of 16,insC 3' of 16 (mixed)
# RNA 1: B1 RNA 1
# RNA 2: B2 RNA 2 with G37U, A38C, G40A, U41G, A44U, U45A, C46U
# B21: target 1 insC 3' of 15,insG 3' of 4 (mixed)
# RNA 1: B1 RNA 1
# RNA 2: B2 RNA 2 with A38C, G39A, U41G, G42U, C48G, G49C, C50G
# B22: target 1 C6A,U19A (mixed)
# RNA 1: B1 RNA 1
# RNA 2: B1 RNA 2 with U33A, G44U, G46A
# B23: target 1 C2A,G12A (mixed)
# RNA 1: B1 RNA 1
# RNA 2: B1 RNA 2 with G40A, G44U, G46C, C50A
# B24: target 1 insU 3' of 21,insG 3' of 4 (mixed)
# RNA 1: B1 RNA 1
# RNA 2: GGGAAUGGAUCCACAUCUACGAAUUCGUACCUAUAGAGAGGUUAUCCGCGUCACCGAGAUCGGAAGAGCACACGU
# B25: target 1 insA 3' of 19,insU 3' of 5 (mixed)
# RNA 1: B1 RNA 1
# RNA 2: B24 RNA 2 with U32A, A33U, U34A, C49U, G50C
# B26: target 1 C2A,G12U (mixed)
# RNA 1: B1 RNA 1
# RNA 2: B1 RNA 2 with G40U, G44U, G46C, C50A
# B27: target 1 insA 3' of 6,insC 3' of 5 (mixed)
# RNA 1: B1 RNA 1
# RNA 2: B2 RNA 2 with G42U, U43A, A44U, U45C, C47A, C48G, G49C
# B28: target 1 U8A,C21U (mixed)
# RNA 1: B1 RNA 1
# RNA 2: B1 RNA 2 with C31U, G44A, G46C
# B29: target 1 insC 3' of 12,insG 3' of 6 (mixed)
# RNA 1: B1 RNA 1
# RNA 2: B2 RNA 2 with U41C, G42U, C48G
# Molecular target: T1, EsCas13d, nuclease-dead
# Experiment: crRNA (strand 1, pre-loaded); Mg2+; 40 mM Tris-HCl pH 7.5, 150 mM NaCl, 6 mM MgCl2, 1 mM DTT, 0.1% Tween-20, 0.2 mg/ml BSA; 25 C; 10 min per concentration, then washed
# Settings: tags: His6-TwinStrep-SUMO cleaved; N-terminal SNAP kept (SNAP-Surface 488); label: 3' end held by stalled T7 RNA polymerase
row,Binder,Kd [nM]
1,B1,12.8 ± 0.6
2,B2,39 ± 6
3,B3,15.6 ± 1.8
4,B4,28.8 ± 1.4
5,B5,84 ± 9
6,B6,8.6 ± 0.6
7,B7,45.8 ± 3.4
8,B8,33 ± 5
9,B9,7.7 ± 0.5
10,B10,22.6 ± 1.3
11,B11,23.4 ± 1.1
12,B12,25.9 ± 2.4
13,B13,16.9 ± 1.8
14,B14,~60
15,B15,8 ± 0.4
16,B16,12.9 ± 0.9
17,B17,30 ± 4
18,B18,28 ± 1.4
19,B19,72 ± 11
20,B20,47 ± 4
21,B21,10.7 ± 0.6
22,B22,29.8 ± 1.7
23,B23,4.57 ± 0.22
24,B24,24.9 ± 2.8
25,B25,41 ± 6
26,B26,9.2 ± 0.4
27,B27,23.9 ± 1.9
28,B28,9.1 ± 0.4
29,B29,9.1 ± 1.6
